Measurements reported in patent US20180055768A1 (Harvard, published 2018).

Molecular target: T1, FLAG-tagged wild-type (wt) ARRDC1 (Homo sapiens, UniProt Q8N5I2 1-433)
T1 construct: Expressed in 293T cells and immunoprecipitated with anti-FLAG; also called Flag-ARRDC1; arrestin domain-containing protein 1; not shown: FLAG tag
T1 sequence: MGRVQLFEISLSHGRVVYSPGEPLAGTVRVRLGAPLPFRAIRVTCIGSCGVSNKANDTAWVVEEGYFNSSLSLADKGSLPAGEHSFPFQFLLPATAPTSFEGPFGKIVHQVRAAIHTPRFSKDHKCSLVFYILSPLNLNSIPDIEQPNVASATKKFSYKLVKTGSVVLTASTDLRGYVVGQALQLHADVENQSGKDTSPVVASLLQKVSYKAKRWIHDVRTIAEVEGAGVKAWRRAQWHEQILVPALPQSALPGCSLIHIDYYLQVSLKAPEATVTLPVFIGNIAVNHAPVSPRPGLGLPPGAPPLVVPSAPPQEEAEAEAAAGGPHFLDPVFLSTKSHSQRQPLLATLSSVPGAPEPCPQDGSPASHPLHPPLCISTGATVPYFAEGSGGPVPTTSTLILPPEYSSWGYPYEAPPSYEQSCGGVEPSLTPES
Assay: co-immunoprecipitation from transfected 293T cells, Western blot (FIG. 1D)

binding result: no binding
B1: HA-tagged mutant (M95A) TSG101 (other)
chain: MAVSESQLKKMVSKYKYRDLTVRETVNVITLYKDLKPVLDSYVFNDGSSRELMNLTGTIPVPYRGNTYNIPICLWLLDTYPYNPPICFVKPTSSATIKTGKHVDANGKIYLPYLHEWKHPQSDLLGLIQVMIVVFGDEPPVFSRPISASYPPYQATGPPNTSYMPGMPGGISPYPSGYPPNPSGYPGCPYPPGGPYPATTSSQYPSQPPVTTVGPSRDGTISEDTIRASLISAVSDKLRWRMKEEMDRAQAELNALKRTEEDLKKGHQKLEEMVTRLDQEVAEVDKNIELLKKKDEELSSALEKMENQSENNDIDEVIIPTAPLYKQILNLYAEENAIEDTIFYLGEALRRGVIDLDVFLKHVRLLSRKQFQLRALMQKARKTAGLSDLY
notes: Expressed in 293T cells; also called TSG101 M95A; not shown: HA tag
